For the assay, the target named is T1, CST (Ctc1/Stn1/Ten1), His6-MBP tag of Ctc1 cleaved off (human), Q2NKJ3.
T1 chain 1: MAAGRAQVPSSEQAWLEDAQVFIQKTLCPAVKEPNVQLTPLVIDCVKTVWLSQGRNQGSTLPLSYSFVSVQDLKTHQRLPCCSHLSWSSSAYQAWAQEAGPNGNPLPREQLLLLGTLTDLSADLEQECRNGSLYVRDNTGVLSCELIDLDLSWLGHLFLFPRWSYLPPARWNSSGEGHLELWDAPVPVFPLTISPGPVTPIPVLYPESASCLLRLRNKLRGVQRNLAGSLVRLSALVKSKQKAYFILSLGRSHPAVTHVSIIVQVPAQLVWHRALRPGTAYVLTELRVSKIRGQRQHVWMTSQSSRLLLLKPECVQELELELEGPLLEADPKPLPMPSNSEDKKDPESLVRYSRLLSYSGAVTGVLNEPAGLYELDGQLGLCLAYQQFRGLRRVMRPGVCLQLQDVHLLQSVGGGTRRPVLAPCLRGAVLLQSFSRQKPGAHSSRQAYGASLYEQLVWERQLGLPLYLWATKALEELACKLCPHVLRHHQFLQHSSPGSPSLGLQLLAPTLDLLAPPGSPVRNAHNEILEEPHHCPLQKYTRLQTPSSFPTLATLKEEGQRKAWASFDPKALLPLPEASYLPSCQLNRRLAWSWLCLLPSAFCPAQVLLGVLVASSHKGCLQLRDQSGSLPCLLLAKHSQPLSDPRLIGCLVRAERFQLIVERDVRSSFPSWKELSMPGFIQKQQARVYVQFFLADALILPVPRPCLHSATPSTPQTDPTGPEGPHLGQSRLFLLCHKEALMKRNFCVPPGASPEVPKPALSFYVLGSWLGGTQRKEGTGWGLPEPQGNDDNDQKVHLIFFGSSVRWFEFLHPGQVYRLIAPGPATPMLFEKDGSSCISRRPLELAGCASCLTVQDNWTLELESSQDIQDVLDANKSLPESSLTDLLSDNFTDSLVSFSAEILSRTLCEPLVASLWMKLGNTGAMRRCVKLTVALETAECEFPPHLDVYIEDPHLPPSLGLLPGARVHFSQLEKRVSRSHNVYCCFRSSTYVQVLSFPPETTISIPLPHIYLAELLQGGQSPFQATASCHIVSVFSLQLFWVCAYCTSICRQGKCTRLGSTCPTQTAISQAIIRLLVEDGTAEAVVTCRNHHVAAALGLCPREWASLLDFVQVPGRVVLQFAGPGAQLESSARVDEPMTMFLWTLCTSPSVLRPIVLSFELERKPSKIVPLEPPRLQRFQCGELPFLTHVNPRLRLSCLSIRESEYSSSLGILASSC
T1 chain 2: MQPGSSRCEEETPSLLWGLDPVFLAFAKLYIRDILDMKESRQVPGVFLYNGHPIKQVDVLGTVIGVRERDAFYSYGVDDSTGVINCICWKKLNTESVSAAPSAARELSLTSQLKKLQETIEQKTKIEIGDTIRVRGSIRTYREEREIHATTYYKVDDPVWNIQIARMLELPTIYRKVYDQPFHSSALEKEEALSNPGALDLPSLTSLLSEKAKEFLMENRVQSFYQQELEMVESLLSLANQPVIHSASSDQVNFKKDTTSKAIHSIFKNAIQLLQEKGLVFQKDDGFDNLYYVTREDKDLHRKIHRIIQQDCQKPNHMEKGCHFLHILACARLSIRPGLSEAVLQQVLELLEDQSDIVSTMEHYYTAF
T1 chain 3: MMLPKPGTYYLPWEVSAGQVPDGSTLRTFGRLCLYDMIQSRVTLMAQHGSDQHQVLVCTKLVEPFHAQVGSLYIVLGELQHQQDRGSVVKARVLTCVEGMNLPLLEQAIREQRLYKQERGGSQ
Nature of the assay: negative-stain EM. The settings on record: remark: other sources report otherwise.

As usually defined, the stoichiometry N is the number of molecules, sites or subunits per partner or assembly.

B1: CST (Ctc1/Stn1/Ten1), His6-MBP tag of Ctc1 cleaved off, Q2NKJ3 1-1217; Q9H668 1-368; Q86WV5 1-123 (complex)
chain 1: MAAGRAQVPSSEQAWLEDAQVFIQKTLCPAVKEPNVQLTPLVIDCVKTVWLSQGRNQGSTLPLSYSFVSVQDLKTHQRLPCCSHLSWSSSAYQAWAQEAGPNGNPLPREQLLLLGTLTDLSADLEQECRNGSLYVRDNTGVLSCELIDLDLSWLGHLFLFPRWSYLPPARWNSSGEGHLELWDAPVPVFPLTISPGPVTPIPVLYPESASCLLRLRNKLRGVQRNLAGSLVRLSALVKSKQKAYFILSLGRSHPAVTHVSIIVQVPAQLVWHRALRPGTAYVLTELRVSKIRGQRQHVWMTSQSSRLLLLKPECVQELELELEGPLLEADPKPLPMPSNSEDKKDPESLVRYSRLLSYSGAVTGVLNEPAGLYELDGQLGLCLAYQQFRGLRRVMRPGVCLQLQDVHLLQSVGGGTRRPVLAPCLRGAVLLQSFSRQKPGAHSSRQAYGASLYEQLVWERQLGLPLYLWATKALEELACKLCPHVLRHHQFLQHSSPGSPSLGLQLLAPTLDLLAPPGSPVRNAHNEILEEPHHCPLQKYTRLQTPSSFPTLATLKEEGQRKAWASFDPKALLPLPEASYLPSCQLNRRLAWSWLCLLPSAFCPAQVLLGVLVASSHKGCLQLRDQSGSLPCLLLAKHSQPLSDPRLIGCLVRAERFQLIVERDVRSSFPSWKELSMPGFIQKQQARVYVQFFLADALILPVPRPCLHSATPSTPQTDPTGPEGPHLGQSRLFLLCHKEALMKRNFCVPPGASPEVPKPALSFYVLGSWLGGTQRKEGTGWGLPEPQGNDDNDQKVHLIFFGSSVRWFEFLHPGQVYRLIAPGPATPMLFEKDGSSCISRRPLELAGCASCLTVQDNWTLELESSQDIQDVLDANKSLPESSLTDLLSDNFTDSLVSFSAEILSRTLCEPLVASLWMKLGNTGAMRRCVKLTVALETAECEFPPHLDVYIEDPHLPPSLGLLPGARVHFSQLEKRVSRSHNVYCCFRSSTYVQVLSFPPETTISIPLPHIYLAELLQGGQSPFQATASCHIVSVFSLQLFWVCAYCTSICRQGKCTRLGSTCPTQTAISQAIIRLLVEDGTAEAVVTCRNHHVAAALGLCPREWASLLDFVQVPGRVVLQFAGPGAQLESSARVDEPMTMFLWTLCTSPSVLRPIVLSFELERKPSKIVPLEPPRLQRFQCGELPFLTHVNPRLRLSCLSIRESEYSSSLGILASSC
chain 2: MQPGSSRCEEETPSLLWGLDPVFLAFAKLYIRDILDMKESRQVPGVFLYNGHPIKQVDVLGTVIGVRERDAFYSYGVDDSTGVINCICWKKLNTESVSAAPSAARELSLTSQLKKLQETIEQKTKIEIGDTIRVRGSIRTYREEREIHATTYYKVDDPVWNIQIARMLELPTIYRKVYDQPFHSSALEKEEALSNPGALDLPSLTSLLSEKAKEFLMENRVQSFYQQELEMVESLLSLANQPVIHSASSDQVNFKKDTTSKAIHSIFKNAIQLLQEKGLVFQKDDGFDNLYYVTREDKDLHRKIHRIIQQDCQKPNHMEKGCHFLHILACARLSIRPGLSEAVLQQVLELLEDQSDIVSTMEHYYTAF
chain 3: MMLPKPGTYYLPWEVSAGQVPDGSTLRTFGRLCLYDMIQSRVTLMAQHGSDQHQVLVCTKLVEPFHAQVGSLYIVLGELQHQQDRGSVVKARVLTCVEGMNLPLLEQAIREQRLYKQERGGSQ
B1 returned a stoichiometry N of 2.

These data come from article PMC11246235.
